Data as given in patent US20040162238A1.
Read-outs that look alike come from different tables or passages of the source.

Experiments:
Experiment in all cases: cell-based or functional assay
[1] = molecular target: GPCR73a receptor (Homo sapiens (Human)) (UniProt Q8TCW9)
[2] = molecular target: GPCR73b receptor (Homo sapiens (Human)) (UniProt Q8NFJ6)
[3] = molecular target: GPCR73a receptor (Homo sapiens (Human)) (UniProt Q8TCW9); remark: listed apart in the source
[4] = molecular target: GPCR73b receptor (Homo sapiens (Human)) (UniProt Q8NFJ6); remark: listed apart in the source
[5] = molecular target: Zven1 receptor on Wky12-22 cells (rat)

Chain of GPCR73a receptor (Homo sapiens (Human)) (Q8TCW9 whole entry): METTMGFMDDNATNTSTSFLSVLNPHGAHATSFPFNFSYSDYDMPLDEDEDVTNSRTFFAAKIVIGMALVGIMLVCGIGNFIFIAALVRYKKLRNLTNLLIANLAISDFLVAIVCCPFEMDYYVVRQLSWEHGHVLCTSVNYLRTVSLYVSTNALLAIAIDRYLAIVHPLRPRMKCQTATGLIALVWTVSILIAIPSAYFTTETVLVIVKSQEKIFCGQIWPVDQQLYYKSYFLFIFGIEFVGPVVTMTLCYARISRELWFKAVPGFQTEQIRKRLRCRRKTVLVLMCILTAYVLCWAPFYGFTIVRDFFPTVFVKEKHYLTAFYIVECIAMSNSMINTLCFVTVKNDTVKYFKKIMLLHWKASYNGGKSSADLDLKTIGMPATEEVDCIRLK
Chain of GPCR73b receptor (Homo sapiens (Human)) (Q8NFJ6 whole entry): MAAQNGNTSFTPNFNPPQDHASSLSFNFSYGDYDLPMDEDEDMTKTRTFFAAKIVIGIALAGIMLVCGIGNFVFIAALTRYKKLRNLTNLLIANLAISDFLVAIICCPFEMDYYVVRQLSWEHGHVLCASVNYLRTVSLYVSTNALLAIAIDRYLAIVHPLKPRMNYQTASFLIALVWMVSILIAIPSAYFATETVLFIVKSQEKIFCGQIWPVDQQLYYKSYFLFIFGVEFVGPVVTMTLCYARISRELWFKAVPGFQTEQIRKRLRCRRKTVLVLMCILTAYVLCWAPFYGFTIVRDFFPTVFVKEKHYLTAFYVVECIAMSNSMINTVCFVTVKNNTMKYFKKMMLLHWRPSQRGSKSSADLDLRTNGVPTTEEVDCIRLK

B1: Zven2 ("endocrine-gland-derived vascular endothelial growth factor") protein purchased from Peprotech, Inc. (ligand)
chain: AVITGACERDVQCGAGTCCAISLWLRGLRMCTPLGREGEECHPGSHKVPFFRKRKHHTCPCLPNLLCSRFPDGRYRCSMDLKNINF
[1]
  SRE luciferase fold-induction at 1 ng/ml, Rat2 cells with GPCR73a (fold-induction): 1.2
  SRE luciferase fold-induction at 3.2 ng/ml, Rat2 cells with GPCR73a (fold-induction): 1.6
  SRE luciferase fold-induction at 10 ng/ml, Rat2 cells with GPCR73a (fold-induction): 2.5
  SRE luciferase fold-induction at 32 ng/ml, Rat2 cells with GPCR73a (fold-induction): 5.8
  SRE luciferase fold-induction at 100 ng/ml, Rat2 cells with GPCR73a (fold-induction): 11.4
  SRE luciferase fold-induction at 320 ng/ml, Rat2 cells with GPCR73a (fold-induction): 24.4
  SRE luciferase fold-induction at 1000 ng/ml, Rat2 cells with GPCR73a (fold-induction): 20
[2]
  SRE luciferase fold-induction at 1 ng/ml, Rat2 cells with GPCR73b (fold-induction): 1.1
  SRE luciferase fold-induction at 3.2 ng/ml, Rat2 cells with GPCR73b (fold-induction): 1.3
  SRE luciferase fold-induction at 10 ng/ml, Rat2 cells with GPCR73b (fold-induction): 1.8
  SRE luciferase fold-induction at 32 ng/ml, Rat2 cells with GPCR73b (fold-induction): 2.8
  SRE luciferase fold-induction at 100 ng/ml, Rat2 cells with GPCR73b (fold-induction): 5.6
  SRE luciferase fold-induction at 320 ng/ml, Rat2 cells with GPCR73b (fold-induction): 8.3
  SRE luciferase fold-induction at 1000 ng/ml, Rat2 cells with GPCR73b (fold-induction): 8.4
[3]
  SRE luciferase fold-induction at 1 ng/ml, Rat2 cells with GPCR73a (fold-induction): 0.95
  SRE luciferase fold-induction at 3.2 ng/ml, Rat2 cells with GPCR73a (fold-induction): 1.3
  SRE luciferase fold-induction at 10 ng/ml, Rat2 cells with GPCR73a (fold-induction): 2.6
  SRE luciferase fold-induction at 32 ng/ml, Rat2 cells with GPCR73a (fold-induction): 7.2
  SRE luciferase fold-induction at 320 ng/ml, Rat2 cells with GPCR73a (fold-induction): 20.5
  SRE luciferase fold-induction at 1000 ng/ml, Rat2 cells with GPCR73a (fold-induction): 15
[4]
  SRE luciferase fold-induction at 3.2 ng/ml, Rat2 cells with GPCR73b (fold-induction): 1.4
  SRE luciferase fold-induction at 32 ng/ml, Rat2 cells with GPCR73b (fold-induction): 2.7
  SRE luciferase fold-induction at 100 ng/ml, Rat2 cells with GPCR73b (fold-induction): 4.1
  SRE luciferase fold-induction at 320 ng/ml, Rat2 cells with GPCR73b (fold-induction): 5.8
  SRE luciferase fold-induction at 1000 ng/ml, Rat2 cells with GPCR73b (fold-induction): 6.1

B2: Zven1 protein produced in baculovirus with a C-terminal Glu-Glu tag (ligand)
chain: AVITGACDKDSQCGGGMCCAVSIWVKSIRICTPMGKLGDSCHPLTRKVPFFGRRMHHTCPCLPGLACLRTSFNRFICLAQKGLEYMPMD
[1]
  SRE luciferase fold-induction at 1 ng/ml, Zven1 heated at 56 C for 30 minutes, Rat2 cells with GPCR73a (fold-induction): 1.8
  SRE luciferase fold-induction at 1 ng/ml, fresh Zven1, Rat2 cells with GPCR73a (fold-induction): 2.5
  SRE luciferase fold-induction at 3.2 ng/ml, Zven1 heated at 56 C for 30 minutes, Rat2 cells with GPCR73a (fold-induction): 3.7
  SRE luciferase fold-induction at 3.2 ng/ml, fresh Zven1, Rat2 cells with GPCR73a (fold-induction): 7.1
  SRE luciferase fold-induction at 10 ng/ml, Zven1 heated at 56 C for 30 minutes, Rat2 cells with GPCR73a (fold-induction): 10
  SRE luciferase fold-induction at 10 ng/ml, fresh Zven1, Rat2 cells with GPCR73a (fold-induction): 13.1
  SRE luciferase fold-induction at 32 ng/ml, Zven1 heated at 56 C for 30 minutes, Rat2 cells with GPCR73a (fold-induction): 14.8
  SRE luciferase fold-induction at 32 ng/ml, fresh Zven1, Rat2 cells with GPCR73a (fold-induction): 18.7
  SRE luciferase fold-induction at 100 ng/ml, Zven1 heated at 56 C for 30 minutes, Rat2 cells with GPCR73a (fold-induction): 18.6
  SRE luciferase fold-induction at 100 ng/ml, fresh Zven1, Rat2 cells with GPCR73a (fold-induction): 20.5
[5]
  ERK-Map kinase activity EC50 in Wky12-22 cells (Arrayscan): 0.5 nM
